Test [1] has as its target T1, human calcitonin receptor (human, UniProt P30988 25-474).
T1 construct: whole, on cells; Assay used cell membranes of the transfected BHK cells; also called hCTR; hCT
T1 sequence (looked up): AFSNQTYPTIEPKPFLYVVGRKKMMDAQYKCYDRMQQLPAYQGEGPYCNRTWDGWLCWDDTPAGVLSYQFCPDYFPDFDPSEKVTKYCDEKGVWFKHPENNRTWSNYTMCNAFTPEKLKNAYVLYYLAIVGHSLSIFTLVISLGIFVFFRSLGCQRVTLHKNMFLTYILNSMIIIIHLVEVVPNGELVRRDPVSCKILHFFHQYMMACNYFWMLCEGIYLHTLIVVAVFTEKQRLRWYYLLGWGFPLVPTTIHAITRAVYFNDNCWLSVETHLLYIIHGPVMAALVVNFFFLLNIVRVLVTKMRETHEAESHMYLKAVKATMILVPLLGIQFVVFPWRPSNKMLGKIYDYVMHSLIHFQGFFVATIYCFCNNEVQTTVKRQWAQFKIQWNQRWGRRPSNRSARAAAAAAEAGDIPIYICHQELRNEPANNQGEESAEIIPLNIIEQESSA
Description: SPA radioligand competition (125I-calcitonin), membranes of BHK cells with human calcitonin receptor. In a few lines:
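BHK hCTR membranes 35 ng/μL + SPA beads 0.05 mg/well; buffer 50 mM Hepes pH 7.4, 1 mM CaCl2, 5 mM MgCl₂, 0.1% OA, 0.02% Tween20. 120 min, 25° C., shaking. Scintillation count; IC50 by one-site binding competition.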

Test [2] deals with T1, human calcitonin receptor. Briefly: ratio IC50 hCTR / IC50 hAmylin-R of the two SPA competition assays; reference: human amylin receptor. The method, then: The resulting pellet was resuspended, homogenized and centrifuged (20.000 rpm, 15 min) in a buffer containing 20 mM Na-HEPES and 0.1 mM EDTA (pH 7.4, buffer 2). The resulting pellet was resuspended in buffer 2 and protein concentration was measured (BCA protein Assay, Pierce). The homogenate was kept cold during the whole procedure. The membranes were kept at −80° C. until use. The assay was performed in a 384 well Optiplate (PerkinElmer) in a total volume of 40 ul. Membranes were mixed with SPA beads. Final concentration of membranes 35 ng/μL final and SPA beads was 0.05 mg/well. Test-compounds were dissolved in DMSO and further diluted in assay buffer (50 mM Hepes, pH 7.4, 1 mM CaCl2, 5 mM MgCl₂, 0.1% OA and 0.02% Tween20). […] The final mixture was incubated with shaking at 400 rpm for 120 min at 25° C. prior to centrifugation (1500 rpm, 10 min). Samples were analyzed on TopCounter™ (Packard). The IC₅₀ was calculated using (one site binding competition analysis) GraphPad Prism5 as a measure of receptor affinity.
Membranes were prepared in the following way; the cells were rinsed with PBS and incubated with Versene for approximately 5 min before harvesting. The cells were flushed with PBS and the cell-suspension was centrifuged for 5 min at 1000 rpm. Cells were homogenized (Ultrathurrax) in a buffer containing 20 mM Na-HEPES and 10 mM EDTA (pH 7.4) and centrifuged at 20.000 rpm for 15 min. The resulting pellet was resuspended, homogenized and centrifuged (20.000 rpm, 15 min) in a buffer containing 20 mM Na-HEPES and 0.1 mM EDTA (pH 7.4, buffer 2). The resulting pellet was resuspended in buffer 2 and protein concentration was measured (BCA protein Assay, Pierce). The homogenate was kept cold during the whole procedure. The membranes were kept at −80° C. until use. Assay was performed in a 384 well Optiplate (PerkinElmer) in a total volume of 40 ul. Membranes were mixed with SPA beads.

Numbered stars: 1 amine (or outer) side, 2 acyl side, 3 side chain; on linkers, the order of the positions; unused ones are H or OH. Bridge positions count the residues as written; N and C are the ends. * marks the point of attachment. C20 diacid = O=C(O)CCCCCCCCCCCCCCCCCCC(=O)*; γGlu = O=C(O)[C@H](CCC(=O)[*:2])N[*:1]

These results are taken from patent publication US20140087995A1 (published 2014).

B1: N^α1-[(4S)-4-carboxy-4-(19-carboxynonadecanoylamino)butanoyl]-[Glu14,Arg17,Pro21,Pro27,His34]-h-amylin (peptide)
peptide: {C20 diacid-γGlu}-KCNTATCATQRLAEFLRHSSPNFGAIPSSTNVGHNTY-NH2
modifications: disulfide 2-7
SMILES: CC[C@H](C)[C@H](NC(=O)[C@H](C)NC(=O)CNC(=O)[C@H](Cc1ccccc1)NC(=O)[C@H](CC(N)=O)NC(=O)[C@@H]1CCCN1C(=O)[C@H](CO)NC(=O)[C@H](CO)NC(=O)[C@H](Cc1c[nH]cn1)NC(=O)[C@H](CCCNC(=N)N)NC(=O)[C@H](CC(C)C)NC(=O)[C@H](Cc1ccccc1)NC(=O)[C@H](CCC(=O)O)NC(=O)[C@H](C)NC(=O)[C@H](CC(C)C)NC(=O)[C@H](CCCNC(=N)N)NC(=O)[C@H](CCC(N)=O)NC(=O)[C@@H](NC(=O)[C@H](C)NC(=O)[C@@H]1CSSC[C@H](NC(=O)[C@H](CCCCN)NC(=O)CC[C@H](NC(=O)CCCCCCCCCCCCCCCCCCC(=O)O)C(=O)O)C(=O)N[C@@H](CC(N)=O)C(=O)N[C@@H]([C@@H](C)O)C(=O)N[C@@H](C)C(=O)N[C@@H]([C@@H](C)O)C(=O)N1)[C@@H](C)O)C(=O)N1CCC[C@H]1C(=O)N[C@@H](CO)C(=O)N[C@@H](CO)C(=O)N[C@H](C(=O)N[C@@H](CC(N)=O)C(=O)N[C@H](C(=O)NCC(=O)N[C@@H](Cc1c[nH]cn1)C(=O)N[C@@H](CC(N)=O)C(=O)N[C@H](C(=O)N[C@@H](Cc1ccc(O)cc1)C(N)=O)[C@@H](C)O)C(C)C)[C@@H](C)O
notes: Synthetic analogue; also called compound 17
By IC50 is commonly meant the concentration that gives 50% inhibition. B1: the half-maximal inhibitory concentration (IC50) in test [1] was found to be 10.9 nM. The “Ratio hCT/hAmylin binding” value in test [2] was 12.5.

B2: N^α1N^α1-[(4S)-4-carboxy-4-(19-carboxynonadecanoylamino)butanoyl]-[Glu14,Arg17,Pro21,Pro27,Glu35]-h-amylin (peptide)
peptide: {C20 diacid-γGlu}-KCNTATCATQRLAEFLRHSSPNFGAIPSSTNVGSETY-NH2
modifications: disulfide 2-7
SMILES: CC[C@H](C)[C@H](NC(=O)[C@H](C)NC(=O)CNC(=O)[C@H](Cc1ccccc1)NC(=O)[C@H](CC(N)=O)NC(=O)[C@@H]1CCCN1C(=O)[C@H](CO)NC(=O)[C@H](CO)NC(=O)[C@H](Cc1c[nH]cn1)NC(=O)[C@H](CCCNC(=N)N)NC(=O)[C@H](CC(C)C)NC(=O)[C@H](Cc1ccccc1)NC(=O)[C@H](CCC(=O)O)NC(=O)[C@H](C)NC(=O)[C@H](CC(C)C)NC(=O)[C@H](CCCNC(=N)N)NC(=O)[C@H](CCC(N)=O)NC(=O)[C@@H](NC(=O)[C@H](C)NC(=O)[C@@H]1CSSC[C@H](NC(=O)[C@H](CCCCN)NC(=O)CC[C@H](NC(=O)CCCCCCCCCCCCCCCCCCC(=O)O)C(=O)O)C(=O)N[C@@H](CC(N)=O)C(=O)N[C@@H]([C@@H](C)O)C(=O)N[C@@H](C)C(=O)N[C@@H]([C@@H](C)O)C(=O)N1)[C@@H](C)O)C(=O)N1CCC[C@H]1C(=O)N[C@@H](CO)C(=O)N[C@@H](CO)C(=O)N[C@H](C(=O)N[C@@H](CC(N)=O)C(=O)N[C@H](C(=O)NCC(=O)N[C@@H](CO)C(=O)N[C@@H](CCC(=O)O)C(=O)N[C@H](C(=O)N[C@@H](Cc1ccc(O)cc1)C(N)=O)[C@@H](C)O)C(C)C)[C@@H](C)O
notes: Synthetic analogue; also called compound 22
Consider B2, for which the half-inhibitory concentration (IC50) in test [1] stood at 9.73 nM. Also, the “Ratio hCT/hAmylin binding” value in test [2] was found to be 12.3.

B3: N^α1-[(4S)-4-carboxy-4-(19-carboxynonadecanoylamino)butanoyl]-[Glu14,Arg17,Pro21,Pro27,Pro31]-h-amylin (peptide)
peptide: {C20 diacid-γGlu}-KCNTATCATQRLAEFLRHSSPNFGAIPSSTPVGSNTY-NH2
modifications: disulfide 2-7
SMILES: CC[C@H](C)[C@H](NC(=O)[C@H](C)NC(=O)CNC(=O)[C@H](Cc1ccccc1)NC(=O)[C@H](CC(N)=O)NC(=O)[C@@H]1CCCN1C(=O)[C@H](CO)NC(=O)[C@H](CO)NC(=O)[C@H](Cc1c[nH]cn1)NC(=O)[C@H](CCCNC(=N)N)NC(=O)[C@H](CC(C)C)NC(=O)[C@H](Cc1ccccc1)NC(=O)[C@H](CCC(=O)O)NC(=O)[C@H](C)NC(=O)[C@H](CC(C)C)NC(=O)[C@H](CCCNC(=N)N)NC(=O)[C@H](CCC(N)=O)NC(=O)[C@@H](NC(=O)[C@H](C)NC(=O)[C@@H]1CSSC[C@H](NC(=O)[C@H](CCCCN)NC(=O)CC[C@H](NC(=O)CCCCCCCCCCCCCCCCCCC(=O)O)C(=O)O)C(=O)N[C@@H](CC(N)=O)C(=O)N[C@@H]([C@@H](C)O)C(=O)N[C@@H](C)C(=O)N[C@@H]([C@@H](C)O)C(=O)N1)[C@@H](C)O)C(=O)N1CCC[C@H]1C(=O)N[C@@H](CO)C(=O)N[C@@H](CO)C(=O)N[C@H](C(=O)N1CCC[C@H]1C(=O)N[C@H](C(=O)NCC(=O)N[C@@H](CO)C(=O)N[C@@H](CC(N)=O)C(=O)N[C@H](C(=O)N[C@@H](Cc1ccc(O)cc1)C(N)=O)[C@@H](C)O)C(C)C)[C@@H](C)O
notes: Synthetic analogue; also called compound 31
In the case of B3, the 50% inhibitory concentration (IC50) in test [1] came to 3.26 nM. The “Ratio hCT/hAmylin binding” value in test [2] was found to be 16.

B4: N^α1-[(4S)-4-carboxy-4-(19-carboxynonadecanoylamino)butanoyl]-[His14,Arg17,Pro21,Pro27,Glu35]-h-amylin (peptide)
peptide: {C20 diacid-γGlu}-KCNTATCATQRLAHFLRHSSPNFGAIPSSTNVGSETY-NH2
modifications: disulfide 2-7
SMILES: CC[C@H](C)[C@H](NC(=O)[C@H](C)NC(=O)CNC(=O)[C@H](Cc1ccccc1)NC(=O)[C@H](CC(N)=O)NC(=O)[C@@H]1CCCN1C(=O)[C@H](CO)NC(=O)[C@H](CO)NC(=O)[C@H](Cc1c[nH]cn1)NC(=O)[C@H](CCCNC(=N)N)NC(=O)[C@H](CC(C)C)NC(=O)[C@H](Cc1ccccc1)NC(=O)[C@H](Cc1c[nH]cn1)NC(=O)[C@H](C)NC(=O)[C@H](CC(C)C)NC(=O)[C@H](CCCNC(=N)N)NC(=O)[C@H](CCC(N)=O)NC(=O)[C@@H](NC(=O)[C@H](C)NC(=O)[C@@H]1CSSC[C@H](NC(=O)[C@H](CCCCN)NC(=O)CC[C@H](NC(=O)CCCCCCCCCCCCCCCCCCC(=O)O)C(=O)O)C(=O)N[C@@H](CC(N)=O)C(=O)N[C@@H]([C@@H](C)O)C(=O)N[C@@H](C)C(=O)N[C@@H]([C@@H](C)O)C(=O)N1)[C@@H](C)O)C(=O)N1CCC[C@H]1C(=O)N[C@@H](CO)C(=O)N[C@@H](CO)C(=O)N[C@H](C(=O)N[C@@H](CC(N)=O)C(=O)N[C@H](C(=O)NCC(=O)N[C@@H](CO)C(=O)N[C@@H](CCC(=O)O)C(=O)N[C@H](C(=O)N[C@@H](Cc1ccc(O)cc1)C(N)=O)[C@@H](C)O)C(C)C)[C@@H](C)O
notes: Synthetic analogue; also called compound 30
Consider B4, for which the half-maximal inhibitory concentration (IC50) in test [1] turned out to be 21.6 nM. In test [2], the “Ratio hCT/hAmylin binding” value stood at 23.6.

B5: N^α1-[(4S)-4-carboxy-4-(19-carboxynonadecanoylamino)butanoyl]-[Glu14,Arg17,Pro21,Pro27,Pro34]-h-amylin (peptide)
peptide: {C20 diacid-γGlu}-KCNTATCATQRLAEFLRHSSPNFGAIPSSTNVGPNTY-NH2
modifications: disulfide 2-7
SMILES: CC[C@H](C)[C@H](NC(=O)[C@H](C)NC(=O)CNC(=O)[C@H](Cc1ccccc1)NC(=O)[C@H](CC(N)=O)NC(=O)[C@@H]1CCCN1C(=O)[C@H](CO)NC(=O)[C@H](CO)NC(=O)[C@H](Cc1c[nH]cn1)NC(=O)[C@H](CCCNC(=N)N)NC(=O)[C@H](CC(C)C)NC(=O)[C@H](Cc1ccccc1)NC(=O)[C@H](CCC(=O)O)NC(=O)[C@H](C)NC(=O)[C@H](CC(C)C)NC(=O)[C@H](CCCNC(=N)N)NC(=O)[C@H](CCC(N)=O)NC(=O)[C@@H](NC(=O)[C@H](C)NC(=O)[C@@H]1CSSC[C@H](NC(=O)[C@H](CCCCN)NC(=O)CC[C@H](NC(=O)CCCCCCCCCCCCCCCCCCC(=O)O)C(=O)O)C(=O)N[C@@H](CC(N)=O)C(=O)N[C@@H]([C@@H](C)O)C(=O)N[C@@H](C)C(=O)N[C@@H]([C@@H](C)O)C(=O)N1)[C@@H](C)O)C(=O)N1CCC[C@H]1C(=O)N[C@@H](CO)C(=O)N[C@@H](CO)C(=O)N[C@H](C(=O)N[C@@H](CC(N)=O)C(=O)N[C@H](C(=O)NCC(=O)N1CCC[C@H]1C(=O)N[C@@H](CC(N)=O)C(=O)N[C@H](C(=O)N[C@@H](Cc1ccc(O)cc1)C(N)=O)[C@@H](C)O)C(C)C)[C@@H](C)O
notes: Synthetic analogue; also called compound 32
Turning to B5, the half-inhibitory concentration (IC50) in test [1] came out at 1.09 nM. Moreover, the “Ratio hCT/hAmylin binding” value in test [2] turned out to be 10.9.
